Experimental data from the Immune Epitope Database (IEDB).

Columns and labels:
HLA-C*12:03 = assay: IEDB peptide-MHC binding, purified MHC/direct/fluorescence; filed as Kd, often an IC50 or EC50 that approximates it; ≥ and ≤ were set here for values at or beyond the usual limits of such assays; conditions: source organism: Giardia lamblia ATCC 50803
HLA-C*05:01 = assay: as above; conditions: source organism: Giardia lamblia ATCC 50803
HLA-A*24:03 = assay: as above; conditions: source organism: Giardia lamblia ATCC 50803
HLA-A*29:02 = assay: as above; conditions: source organism: Giardia lamblia ATCC 50803
HLA-A*68:02 = assay: as above; conditions: source organism: Giardia lamblia ATCC 50803
HLA-A*66:01 = assay: as above; conditions: source organism: Giardia lamblia ATCC 50803
HLA-A*23:01 = assay: as above; conditions: source organism: Giardia lamblia ATCC 50803
HLA-B*27:03 = assay: as above; conditions: source organism: Giardia lamblia ATCC 50803
HLA-B*18:01 = assay: as above; conditions: source organism: Giardia lamblia ATCC 50803
HLA-B*57:01 = assay: as above; conditions: source organism: Giardia lamblia ATCC 50803
HLA-A*03:01 = assay: as above; conditions: source organism: Giardia lamblia ATCC 50803
HLA-B*83:01 = assay: IEDB peptide-MHC binding, purified MHC/competitive/fluorescence; filed as Kd, often an IC50 or EC50 that approximates it; ≥ and ≤ were set here for values at or beyond the usual limits of such assays; conditions: source organism: Giardia lamblia ATCC 50803
HLA-A*30:02 = assay: as above; conditions: source organism: Giardia lamblia ATCC 50803
HLA-B*08:01 = assay: as above; conditions: source organism: Giardia lamblia ATCC 50803
HLA-B*07:02 = assay: as above; conditions: source organism: Giardia lamblia ATCC 50803
HLA-B*14:02 [1] = assay: as above; conditions: source organism: Giardia lamblia ATCC 50803
HLA-A*01:01 = assay: as above; conditions: source organism: Giardia lamblia ATCC 50803
HLA-B*40:01 = assay: as above; conditions: source organism: Giardia lamblia ATCC 50803
HLA-B*45:06 = assay: as above; conditions: source organism: Giardia lamblia ATCC 50803
HLA-B*58:01 = assay: as above; conditions: source organism: Giardia lamblia ATCC 50803
HLA-B*27:05 = assay: as above; conditions: source organism: Giardia lamblia ATCC 50803
HLA-B*15:42 = assay: as above; conditions: source organism: Giardia lamblia ATCC 50803
HLA-A*68:23 = assay: as above; conditions: source organism: Giardia lamblia ATCC 50803
HLA-B*51:01 = assay: as above; conditions: source organism: Giardia lamblia ATCC 50803
HLA-B*44:02 = assay: as above; conditions: source organism: Giardia lamblia ATCC 50803
HLA-B*53:01 = assay: as above; conditions: source organism: Giardia lamblia ATCC 50803
HLA-C*14:02 = assay: as above; conditions: source organism: Giardia lamblia ATCC 50803
HLA-A*11:01 = assay: as above; conditions: source organism: Giardia lamblia ATCC 50803
HLA-B*14:02 [2] = assay: IEDB peptide-MHC binding, purified MHC/direct/fluorescence; filed as Kd, often an IC50 or EC50 that approximates it; ≥ and ≤ were set here for values at or beyond the usual limits of such assays; conditions: source organism: Homo sapiens

Sequence: MTYLDGHPV
- Kd (HLA-C*12:03): 153 nM
- Kd (HLA-C*05:01): ≥ 20 µM
- Kd (HLA-A*24:03): ≥ 20 µM
- Kd (HLA-A*29:02): 6 nM
- Kd (HLA-A*68:02): ≤ 1 nM
- Kd (HLA-A*66:01): 134 nM
- Kd (HLA-A*23:01): ≥ 20 µM
- Kd (HLA-B*27:03): ≥ 20 µM
- Kd (HLA-B*18:01): ≥ 20 µM
- Kd (HLA-B*57:01): ≥ 20 µM
- Kd (HLA-A*03:01): ≥ 20 µM
- Kd (HLA-B*83:01): ≥ 5 µM
- Kd (HLA-A*30:02): ≥ 5 µM
- Kd (HLA-B*08:01): ≥ 5 µM
- Kd (HLA-B*07:02): ≥ 5 µM
- Kd (HLA-B*14:02 [1]): ≥ 5 µM
- Kd (HLA-A*01:01): ≥ 5 µM
- Kd (HLA-B*40:01): ≥ 5 µM
- Kd (HLA-B*45:06): ≥ 5 µM
- Kd (HLA-B*58:01): ≥ 5 µM
- Kd (HLA-B*27:05): ≥ 5 µM
- Kd (HLA-B*15:42): ≥ 5 µM
- Kd (HLA-A*68:23): ≤ 0.1 nM
- Kd (HLA-B*51:01): ≥ 5 µM
- Kd (HLA-B*44:02): ≥ 5 µM
- Kd (HLA-B*53:01): ≥ 5 µM
- Kd (HLA-C*14:02): 30.3 nM
- Kd (HLA-A*11:01): 138 nM

Sequence: NEVLHQEL
- Kd (HLA-B*14:02 [2]): 294 nM
